Measurements: IntAct's records for PubMed 31515488

B1: Notch homolog 2 N-terminal-like protein A (Homo sapiens), Q7Z3S9 (parent)
chain: MCVTYHNGTGYCKCPEGFLGEYCQHRDPCEKNRCQNGGTCVAQAMLGKATCRCASGFTGEDCQYSTSHPCFVSRPCLNGGTCHMLSRDTYECTCQVGFTGKECQWTDACLSHPCANGSTCTTVANQFSCKCLTGFTGQKCETDVNECDIPGHCQHGGTCLNLPGSYQCQCLQGFTGQYCDSLYVPCAPSPCVNGGTCRQTGDFTFECNCLPETVRRGTELWERDREVWNGKEHDEN

Variants of: B1
Conditions: with pde9a_human PDE9A
With R74Q the “effect of a mutation on the interaction” value was “with no effect”.
In the case of A115T, the “effect of a mutation on the interaction” value is reported as “with no effect”.

Variants of: B1
Conditions: with ppbi_human ALPI
With R74Q the “effect of a mutation on the interaction” value was “with no effect”.
In the case of A115T, the “effect of a mutation on the interaction” value is reported as “with no effect”.

Variants of: B1
Conditions: with snai1_human SNAI1, O95863
Chain of snai1_human SNAI1, O95863 (O95863 whole entry): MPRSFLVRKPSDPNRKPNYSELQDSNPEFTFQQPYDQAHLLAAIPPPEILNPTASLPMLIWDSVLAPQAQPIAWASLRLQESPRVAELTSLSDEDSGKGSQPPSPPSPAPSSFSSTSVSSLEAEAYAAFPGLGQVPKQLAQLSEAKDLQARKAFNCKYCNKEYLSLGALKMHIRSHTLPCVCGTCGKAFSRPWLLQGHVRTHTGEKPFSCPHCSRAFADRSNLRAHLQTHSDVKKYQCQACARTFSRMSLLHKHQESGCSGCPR
In the case of R74Q, the “effect of a mutation on the interaction” value is reported as “with no effect”.
For A115T, the “effect of a mutation on the interaction” value was “with no effect”.

Variants of: B1
Conditions: with anfb_human NPPB
In the case of R74Q, the “effect of a mutation on the interaction” value is reported as “with no effect”.
In the case of A115T, the “effect of a mutation on the interaction” value is reported as “with no effect”.

Variants of: B1
Conditions: with adck5_human ADCK5, Q3MIX3
Chain of adck5_human ADCK5, Q3MIX3 (Q3MIX3 whole entry): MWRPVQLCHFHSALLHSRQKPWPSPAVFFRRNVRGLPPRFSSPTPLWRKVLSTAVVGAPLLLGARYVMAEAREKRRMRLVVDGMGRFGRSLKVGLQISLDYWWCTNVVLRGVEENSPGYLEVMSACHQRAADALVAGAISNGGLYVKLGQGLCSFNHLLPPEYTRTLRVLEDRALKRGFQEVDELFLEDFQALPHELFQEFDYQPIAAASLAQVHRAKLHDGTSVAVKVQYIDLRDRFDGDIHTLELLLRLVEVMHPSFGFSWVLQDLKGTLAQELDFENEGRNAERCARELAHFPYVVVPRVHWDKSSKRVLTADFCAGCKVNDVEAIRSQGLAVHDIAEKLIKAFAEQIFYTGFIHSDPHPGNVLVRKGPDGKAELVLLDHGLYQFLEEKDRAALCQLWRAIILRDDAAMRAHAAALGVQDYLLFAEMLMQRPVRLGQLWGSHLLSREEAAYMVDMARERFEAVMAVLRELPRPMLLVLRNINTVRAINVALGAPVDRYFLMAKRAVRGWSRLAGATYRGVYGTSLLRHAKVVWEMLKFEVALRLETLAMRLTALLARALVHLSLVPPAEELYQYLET
With R74Q the “effect of a mutation on the interaction” value was “with no effect”.
A115T was tested, and the “effect of a mutation on the interaction” value was “with no effect”.

Variants of: B1
Conditions: with catz_human CTSZ
In the case of R74Q, the “effect of a mutation on the interaction” value is reported as “with no effect”.
With A115T the “effect of a mutation on the interaction” value was “with no effect”.

Variants of: B1
Conditions: with txnd5_human TXNDC5, Q8NBS9
Chain of txnd5_human TXNDC5, Q8NBS9 (Q8NBS9 whole entry): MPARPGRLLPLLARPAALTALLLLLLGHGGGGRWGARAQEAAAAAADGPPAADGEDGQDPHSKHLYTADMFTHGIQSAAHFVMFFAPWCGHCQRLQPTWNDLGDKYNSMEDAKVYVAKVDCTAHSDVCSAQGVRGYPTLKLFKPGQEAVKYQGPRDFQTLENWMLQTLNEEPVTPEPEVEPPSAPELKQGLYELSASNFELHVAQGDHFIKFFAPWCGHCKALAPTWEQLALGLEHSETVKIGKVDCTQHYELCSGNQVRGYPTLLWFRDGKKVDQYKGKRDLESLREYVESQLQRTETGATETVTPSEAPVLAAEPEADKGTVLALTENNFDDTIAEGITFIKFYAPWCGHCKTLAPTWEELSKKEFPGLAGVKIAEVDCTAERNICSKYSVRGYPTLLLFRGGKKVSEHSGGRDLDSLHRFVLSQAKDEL
For R74Q, the “effect of a mutation on the interaction” value was “with no effect”.
A115T was tested, and the “effect of a mutation on the interaction” value was “with no effect”.

Variants of: B1
Conditions: with trpv6_human TRPV6, Q9H1D0
With R74Q the “effect of a mutation on the interaction” value was “with no effect”.
In the case of A115T, the “effect of a mutation on the interaction” value is reported as “with no effect”.

Variants of: B1
Conditions: with ptn23_human PTPN23, Q9H3S7
Chain of ptn23_human PTPN23, Q9H3S7 (Q9H3S7 whole entry): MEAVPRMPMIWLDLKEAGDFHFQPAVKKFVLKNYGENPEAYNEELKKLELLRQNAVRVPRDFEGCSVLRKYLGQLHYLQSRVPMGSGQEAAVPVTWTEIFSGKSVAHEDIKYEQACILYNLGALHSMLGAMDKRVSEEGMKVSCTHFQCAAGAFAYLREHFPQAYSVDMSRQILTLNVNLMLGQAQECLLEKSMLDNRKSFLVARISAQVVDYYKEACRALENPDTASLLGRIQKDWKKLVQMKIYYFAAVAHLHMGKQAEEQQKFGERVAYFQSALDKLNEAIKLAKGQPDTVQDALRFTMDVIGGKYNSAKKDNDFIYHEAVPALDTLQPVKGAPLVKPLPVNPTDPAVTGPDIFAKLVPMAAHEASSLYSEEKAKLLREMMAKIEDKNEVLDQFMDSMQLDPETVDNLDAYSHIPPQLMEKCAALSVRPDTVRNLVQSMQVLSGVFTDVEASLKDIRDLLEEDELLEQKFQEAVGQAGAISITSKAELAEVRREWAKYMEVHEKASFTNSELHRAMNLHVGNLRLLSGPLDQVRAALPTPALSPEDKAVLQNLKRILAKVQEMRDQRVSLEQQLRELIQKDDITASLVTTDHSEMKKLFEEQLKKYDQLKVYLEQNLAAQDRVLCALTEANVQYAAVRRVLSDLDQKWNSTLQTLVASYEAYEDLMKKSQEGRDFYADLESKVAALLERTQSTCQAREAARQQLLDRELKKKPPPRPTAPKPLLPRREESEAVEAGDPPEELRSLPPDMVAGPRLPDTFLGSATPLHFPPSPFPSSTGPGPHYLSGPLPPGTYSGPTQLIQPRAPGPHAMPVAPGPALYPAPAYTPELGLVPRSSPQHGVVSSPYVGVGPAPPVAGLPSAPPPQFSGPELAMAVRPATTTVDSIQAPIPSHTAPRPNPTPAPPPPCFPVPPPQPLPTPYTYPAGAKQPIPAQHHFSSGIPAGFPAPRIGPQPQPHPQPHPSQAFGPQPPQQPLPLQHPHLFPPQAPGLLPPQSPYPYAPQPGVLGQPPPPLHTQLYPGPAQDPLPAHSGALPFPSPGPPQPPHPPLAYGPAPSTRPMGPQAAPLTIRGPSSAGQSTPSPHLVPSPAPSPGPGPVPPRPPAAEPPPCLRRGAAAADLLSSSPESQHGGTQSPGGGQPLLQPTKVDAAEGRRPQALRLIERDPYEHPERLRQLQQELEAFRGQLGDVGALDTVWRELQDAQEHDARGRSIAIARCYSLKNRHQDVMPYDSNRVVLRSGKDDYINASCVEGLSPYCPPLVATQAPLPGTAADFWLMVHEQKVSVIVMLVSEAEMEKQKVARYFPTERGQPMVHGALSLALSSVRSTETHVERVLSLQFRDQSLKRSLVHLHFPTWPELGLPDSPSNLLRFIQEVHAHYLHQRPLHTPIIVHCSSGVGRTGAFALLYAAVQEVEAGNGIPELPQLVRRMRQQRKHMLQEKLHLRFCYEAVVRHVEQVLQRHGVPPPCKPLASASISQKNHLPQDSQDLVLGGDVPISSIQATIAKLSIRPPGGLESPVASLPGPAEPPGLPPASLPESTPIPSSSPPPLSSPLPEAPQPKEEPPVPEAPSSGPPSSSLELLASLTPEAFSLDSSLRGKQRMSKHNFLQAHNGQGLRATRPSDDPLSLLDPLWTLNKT
For R74Q, the “effect of a mutation on the interaction” value was “with no effect”.
With A115T the “effect of a mutation on the interaction” value was “with no effect”.

Variants of: B1
Conditions: with gata2_human GATA2, P23769
Chain of gata2_human GATA2, P23769 (P23769 whole entry): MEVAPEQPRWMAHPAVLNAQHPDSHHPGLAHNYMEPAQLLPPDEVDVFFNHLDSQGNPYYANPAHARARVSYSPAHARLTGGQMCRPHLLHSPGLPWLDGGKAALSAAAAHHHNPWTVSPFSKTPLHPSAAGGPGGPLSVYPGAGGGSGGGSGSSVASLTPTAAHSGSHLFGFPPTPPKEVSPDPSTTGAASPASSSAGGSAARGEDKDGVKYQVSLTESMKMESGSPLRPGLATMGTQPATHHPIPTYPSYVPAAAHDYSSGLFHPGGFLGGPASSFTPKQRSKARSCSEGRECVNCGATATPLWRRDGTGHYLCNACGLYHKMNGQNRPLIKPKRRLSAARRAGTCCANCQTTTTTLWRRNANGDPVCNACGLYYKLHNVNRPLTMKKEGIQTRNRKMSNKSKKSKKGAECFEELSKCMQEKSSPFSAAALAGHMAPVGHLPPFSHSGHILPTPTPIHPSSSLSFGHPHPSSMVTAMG
For R74Q, the “effect of a mutation on the interaction” value was “with no effect”.
In the case of A115T, the “effect of a mutation on the interaction” value is reported as “with no effect”.

Variants of: B1
Conditions: with hbaz_human HBZ
In the case of R74Q, the “effect of a mutation on the interaction” value is reported as “with no effect”.
A115T was tested, and the “effect of a mutation on the interaction” value was “with no effect”.

Variants of: B1
Conditions: with nect3_human NECTIN3, Q9NQS3
Chain of nect3_human NECTIN3, Q9NQS3 (Q9NQS3 whole entry, looked up): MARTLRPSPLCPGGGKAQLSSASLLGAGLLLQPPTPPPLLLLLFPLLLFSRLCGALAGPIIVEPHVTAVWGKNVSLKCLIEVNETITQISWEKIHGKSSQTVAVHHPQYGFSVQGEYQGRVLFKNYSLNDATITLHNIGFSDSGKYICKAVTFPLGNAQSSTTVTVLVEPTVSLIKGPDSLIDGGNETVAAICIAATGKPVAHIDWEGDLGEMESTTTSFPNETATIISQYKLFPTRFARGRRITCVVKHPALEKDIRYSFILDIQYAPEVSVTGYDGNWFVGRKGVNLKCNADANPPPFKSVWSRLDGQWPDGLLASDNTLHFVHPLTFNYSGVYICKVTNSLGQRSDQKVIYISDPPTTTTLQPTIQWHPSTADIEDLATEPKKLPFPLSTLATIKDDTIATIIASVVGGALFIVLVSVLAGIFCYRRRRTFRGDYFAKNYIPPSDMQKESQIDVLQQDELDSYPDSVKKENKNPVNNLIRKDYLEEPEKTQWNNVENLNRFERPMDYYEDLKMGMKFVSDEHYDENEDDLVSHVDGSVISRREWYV
For R74Q, the “effect of a mutation on the interaction” value was “with no effect”.
A115T was tested, and the “effect of a mutation on the interaction” value was “with no effect”.

Variants of: B1
Conditions: with cd5r1_human CDK5R1, Q15078
With R74Q the “effect of a mutation on the interaction” value was “with no effect”.
A115T was tested, and the “effect of a mutation on the interaction” value was “with no effect”.

Variants of: B1
Conditions: with uxt_human UXT
R74Q was tested, and the “effect of a mutation on the interaction” value was “with no effect”.
For A115T, the “effect of a mutation on the interaction” value was “with no effect”.

Variants of: B1
Conditions: with yipf3_human YIPF3, Q9GZM5
R74Q was tested, and the “effect of a mutation on the interaction” value was “with no effect”.
In the case of A115T, the “effect of a mutation on the interaction” value is reported as “with no effect”.

Variants of: B1
Conditions: with thms2_human THEMIS2, Q5TEJ8
Chain of thms2_human THEMIS2, Q5TEJ8 (Q5TEJ8 whole entry): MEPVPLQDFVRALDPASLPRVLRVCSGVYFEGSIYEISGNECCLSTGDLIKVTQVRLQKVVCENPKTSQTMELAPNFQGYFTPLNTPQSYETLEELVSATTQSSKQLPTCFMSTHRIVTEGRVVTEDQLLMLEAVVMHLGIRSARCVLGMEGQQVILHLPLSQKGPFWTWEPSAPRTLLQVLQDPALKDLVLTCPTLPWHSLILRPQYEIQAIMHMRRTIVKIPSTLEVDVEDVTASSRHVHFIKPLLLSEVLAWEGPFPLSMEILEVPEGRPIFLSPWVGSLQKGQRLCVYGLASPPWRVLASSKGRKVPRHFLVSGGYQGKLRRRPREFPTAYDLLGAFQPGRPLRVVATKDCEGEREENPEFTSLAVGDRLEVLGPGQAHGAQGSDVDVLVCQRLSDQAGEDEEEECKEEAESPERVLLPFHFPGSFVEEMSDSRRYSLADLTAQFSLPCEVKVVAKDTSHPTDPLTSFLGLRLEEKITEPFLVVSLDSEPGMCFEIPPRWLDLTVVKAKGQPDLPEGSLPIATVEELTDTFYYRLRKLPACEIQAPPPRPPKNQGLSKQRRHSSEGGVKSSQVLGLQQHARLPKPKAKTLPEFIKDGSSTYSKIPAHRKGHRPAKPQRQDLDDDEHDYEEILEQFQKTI
In the case of R74Q, the “effect of a mutation on the interaction” value is reported as “with no effect”.
With A115T the “effect of a mutation on the interaction” value was “with no effect”.

Variants of: B1
Conditions: with bmp7_human BMP7, P18075
Chain of bmp7_human BMP7, P18075 (P18075 whole entry): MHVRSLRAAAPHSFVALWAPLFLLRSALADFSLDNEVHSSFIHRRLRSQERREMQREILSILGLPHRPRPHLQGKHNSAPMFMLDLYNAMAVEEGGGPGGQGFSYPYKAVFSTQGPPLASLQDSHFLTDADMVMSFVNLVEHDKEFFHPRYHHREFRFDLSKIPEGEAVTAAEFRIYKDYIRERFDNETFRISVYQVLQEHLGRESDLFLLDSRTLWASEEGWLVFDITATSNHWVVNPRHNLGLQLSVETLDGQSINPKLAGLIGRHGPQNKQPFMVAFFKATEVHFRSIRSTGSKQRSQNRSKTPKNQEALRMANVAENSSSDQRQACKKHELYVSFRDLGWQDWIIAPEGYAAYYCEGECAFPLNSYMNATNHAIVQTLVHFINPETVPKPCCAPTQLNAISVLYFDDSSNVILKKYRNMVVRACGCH
R74Q was tested, and the “effect of a mutation on the interaction” value was “with no effect”.
A115T was tested, and the “effect of a mutation on the interaction” value was “with no effect”.

Variants of: B1
Conditions: with cxcl5_human CXCL5, P42830
In the case of R74Q, the “effect of a mutation on the interaction” value is reported as “with no effect”.
With A115T the “effect of a mutation on the interaction” value was “with no effect”.

Variants of: B1
Conditions: with itb2_human ITGB2, P05107
In the case of A115T, the “effect of a mutation on the interaction” value is reported as “with no effect”.
